In test [1] the target is T1, 重组人VEGF (recombinant human VEGF, VEGF-A) (human, UniProt P15692-4 27-191, limits assumed). Kind of test: Friguet method (solution equilibrium with human VEGF, ELISA of free antibody on immobilised VEGF), Fab.
Test [2] has as its target T1, 重组人VEGF (recombinant human VEGF, VEGF-A). The experiment in a line: Friguet method, full-length antibody.

T1 sequence (P15692 other isoform, or with tags, fused parts or gaps limits assumed): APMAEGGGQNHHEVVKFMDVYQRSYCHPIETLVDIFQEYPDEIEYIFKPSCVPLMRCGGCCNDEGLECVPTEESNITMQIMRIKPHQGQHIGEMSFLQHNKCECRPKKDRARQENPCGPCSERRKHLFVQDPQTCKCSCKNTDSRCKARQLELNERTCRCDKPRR

B1: 3D7 Fab (原型分子3D7) (Fab, V domains shown)
VH: EVQLVESGGGLVQPGGSLRLSCAASGFNIKDTYIHWVRQAPGKGLEWVAYIAPSYGYTRYADSVKGRFTISADTSKNTAYLQMNSLRAEDTAVYYCSRSSDASYSYSAWGQGTLVTVSS
VL: DIVMTQSPSSLSASVGDRVTITCRASQFVGFYIHWYQQKPGKAPKLLIYAASERATGVPSRFSGSRSGTDFTLTISSLQPEDFATYYCQQWLNNPFTFGQGTKVEIKR
notes: Tested as a Fab (phage supernatant in the screen); also called 原型抗体3D7
Take B1: the Kd in test [1] was found to be 1.56 nM.

B2: 6B2 Fab (候选分子6B2) (Fab, V domains shown)
VH: EVQLVQSGGGVVQPRRSLRLSCAASGFDIYDDDIHWVRQAPGKGLEWVYIAPSYGYTRYADSVKGRFTVSRDNSKNTLYLQMNSLRAEDTSVYYCARSSDASYSYSAMDYWGQGTLVTVSS
VL: DIQMTQSPSSVSASIGDRVTITCRASQDASYSSAWYQQRPGKAPELLIYSAASYESGVPSRFSGSGSGTDFTLTISSLQAEDFATYYCQSSASPATFGQGTRLEIKR
Turning to B2, in test [1], the Kd is 0.276 nM.

B3: 全长6B2 (F6B2), full-length antibody (antibody, V domains shown)
VH: EVQLVQSGGGVVQPRRSLRLSCAASGFDIYDDDIHWVRQAPGKGLEWVYIAPSYGYTRYADSVKGRFTVSRDNSKNTLYLQMNSLRAEDTSVYYCARSSDASYSYSAMDYWGQGTLVTVSS
VL: DIQMTQSPSSVSASIGDRVTITCRASQDASYSSAWYQQRPGKAPELLIYSAASYESGVPSRFSGSGSGTDFTLTISSLQAEDFATYYCQSSASPATFGQGTRLEIKR
notes: expressed in DG44 cells; also called 6B2全长抗体分子
Regarding B3, in test [2], the Kd came out at 0.022 nM.

Source of the values: patent CN102875676A (WUXI PROGRAMMED ARTIFICIAL MOLECULAR EVOLUTION CO LTD, dated 2013).
